Values quoted from earlier work as cited in US20250099434A1, “METHODS OF TREATING AMYLOID RELATED BRAIN DISORDERS USING NOVEL COMPOUNDS AND ANTIBODIES” (T3D Therapeutics, Inc., priority 2022, published 2025).

Experiments:
[1] = human, in vivo; cited from earlier work
[2] = EXPEDITION-3; cited from earlier work
Aβ fibrils = details: cited from earlier work
brain amyloid = details: cited from earlier work

Crenezumab: humanized antibody with an IgG4 backbone recognizing multiple forms of aggregated Aβ
ARIA incidence [1]: low

solanezumab: humanized monoclonal IgG1 antibody directed against the mid-domain of the Aβ peptide
incidence of vasogenic edema (ARIA-E), patients treated [2]: approximately 0.1%

B1: Gantenerumab: fully human IgG1 antibody binding a conformational epitope on Aβ fibrils (antibody, chains of the INN, looked up, V domains shown)
VH: QVELVESGGGLVQPGGSLRLSCAASGFTFSSYAMSWVRQAPGKGLEWVSAINASGTRTYYADSVKGRFTISRDNSKNTLYLQMNSLRAEDTAVYYCARGKGNTHKPYGYVRYFDVWGQGTLVTVSS
VL: DIVLTQSPATLSLSPGERATLSCRASQSVSSSYLAWYQQKPGQAPRLLIYGASSRATGVPARFSGSGSGTDFTLTISSLEPEDFATYYCLQIYNMPITFGQGTKVEIK
affinity to a conformational epitope on Aβ fibrils (Aβ fibrils): sub-nanomolar
lowering of brain amyloid, average, florbetapir PET (brain amyloid; dosed as high as 1200 mg subcutaneously): 59 centiloid
participants who developed ARIA-E (brain amyloid; extension studies): one-third
patients with ARIA (brain amyloid; highest dose): one third
